The target of assay [1] is T1, recombinant human 4-1BB (Sino Biological Inc., catalog number 10041-H08H) (human, UniProt Q07011 24-186). The assay is described as follows: ELISA; FIG. 2. In general terms: An ELISA detects its analyte on a solid surface through an enzyme-linked reagent.
For assay [2], the target named is T1, recombinant human 4-1BB (Sino …). The assay is described as follows: ELISA; FIG. 6.
Assay [3] has the same target. Put plainly: ELISA; FIG. 6. The source holds these as a separate data set.
The target is the same in assay [4]. Put plainly: competition ELISA; blocking of 4-1BB/4-1BBL.

A word on the EC50: it is the concentration giving half of the maximal effect.

B1: Urelumab (a patent sequence from WO2004010947) (antibody, V domains shown)
VH: QVQLQQWGAGLLKPSETLSLTCAVYGGSFSGYYWSWIRQSPEKGLEWIGEINHGGYVTYNPSLESRVTISVDTSKNQFSLKLSSVTAADTAVYYCARDYGPGNYDWYFDLWGRGTLVTVSS
VL: EIVLTQSPATLSLSPGERATLSCRASQSVSSYLAWYQQKPGQAPRLLIYDASNRATGIPARFSGSGSGTDFTLTISSLEPEDFAVYYCQQRSNWPPALTFGGGTKVEIK
For the molecule B1, the EC50 in assay [1] and in assay [2] was 0.087 nM throughout.

B2: humanized anti-human 4-1BB monoclonal antibody BH3145b (antibody, V domains shown)
VH: QVQLVQSGAEVKKPGSSVKVSCKASGYTFTSYWINWVRQAPGQGLEWMGNIYPSDSYTNYNQKFKDRVTITADKSTSTAYMELSSLRSEDTAVYYCARLYYGSSPFDYWGQGTTVTVSS
VL: DIQMTQSPSSLSASVGDRVTITCRASQDISNYLNWYQQKPGKVPKLLIYHTSRLHSGVPSRFSGSGSGTDFTLTISSLQPEDVATYYCQQGHTLPRTFGGGTKVEIKR
Consider B2, for which the EC50 in assay [3] was found to be 0.086 nM; in assay [4], 14 nM.
